Test results as given in publication PMC8092592, “A nanobody toolbox targeting dimeric coiled-coil modules for functionalization of designed protein origami structures” (Proceedings of the National Academy of Sciences of the …, 2021).

Tests used:
Conditions in all cases: both partners purified
[1] = target: T1, APH2, antiparallel homodimeric coiled coil of the synthetic peptide APHshSN (N-terminus acetylated; C-terminus amidated); experiment: ITC; nanobody in the syringe titrated into the cell with TET12SN or a tetrahedron variant (2-5 µM), CC peptide dimer (5-10 µM) or a complex preformed by a first titration; MicroCal VP-ITC, 25 °C; 20 mM sodium phosphate pH 7.0, 150 mM NaCl; independent binding sites model (SEDPHAT), errors by Monte-Carlo
T1 construct: designed peptide APH (full name APHshSN); also called APH peptide pair; source: synthetic peptide, bought: ProteoGenix
T1 peptide: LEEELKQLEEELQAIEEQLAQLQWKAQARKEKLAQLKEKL

[2] = target: T2, antiparallel homodimeric APH coiled-coil (APH2), isolated peptide dimer (synthetic construct (designed peptide …)); experiment: crystal structure; crystals of nanobody-CC dimer complexes, solved by molecular replacement
T2 construct: residues named in the text: E4, L8, I15, Q18, Q21, L22, W24, K25, R29; also called APH CC; APH2 peptide; source: synthetic peptide
T2 chain: T1 peptide

[3] = target: T2, antiparallel homodimeric APH …; experiment: ITC; nanobody titrated into the CC peptide dimer, the origami protein or a preformed nanobody-target complex; conditions in SI Appendix
[4] = target: T1, APH2, antiparallel homodimeric coiled …; experiment: ITC; titrations at 18, 25 and 32 °C fitted globally (independent binding sites, temperature-independent heat capacity); parameters reported at 25 °C; 20 mM sodium phosphate pH 7.0, 150 mM NaCl
[5] = target: T3, preformed Nb30_2-APH2 complex (llama, N-terminus acetylated; C-terminus amidated); experiment: ITC; nanobody in the syringe titrated into the cell with TET12SN or a tetrahedron variant (2-5 µM), CC peptide dimer (5-10 µM) or a complex preformed by a first titration; MicroCal VP-ITC, 25 °C; 20 mM sodium phosphate pH 7.0, 150 mM NaCl; independent binding sites model (SEDPHAT), errors by Monte-Carlo
T3 construct: peptide APHshSN, as Dm8; Nb30, as Dm5; source: formed in the ITC cell by a first titration of Nb30 into APH2; copies: 2 + 2

[6] = target: T4, preformed Nb28_2-APH2 complex (llama, N-terminus acetylated; C-terminus amidated); experiment: as above
T4 construct: peptide APHshSN, as Dm8; Nb28, as Dm3; source: formed in the ITC cell by a first titration of Nb28 into APH2; copies: 2 + 2

B1: nanobody Nb49 (VHH)
VHH: QVQLQESGGGLVQPGGSLRLSCIASGRTFNPYGMGWFRQVPGKERTFVSGITWIGGTTYYVNSVKGRFTISRDRAKNTVYLQMNSLKPEDTAVYYCAADKDNTGYNYWGQGTQVTVSS
notes: no cleavage of the His6 tag is described; also called Group 4 (Nb49); source: E. coli WK6, periplasmic extract, purified (Ni2+-NTA; some nanobodies also SEC)
[1]
  stoichiometry N: 2 nanobody per APH2 dimer (cell:syringe)

B2: nanobody Nb49 (VHH)
VHH: B1 VHH
notes: selected by phage display from a llama immunised with TET12SN; construct and tags are in SI Appendix, Materials and Methods; source: E. coli, recombinant, produced and isolated according to standard procedures
[2]
  stoichiometry N: 2 nanobodies per APH2 dimer (printed 2:2 nanobody:CC peptide)
[3]
  Kd: 570 nM

B3: nanobody Nb28 (VHH)
VHH: QVQLQESGGGLVQPGGSLRLSCAAPGFRLDNYVIGWFRQAPGKEREGVSCISSSAGSTYYADSVKGRFTISRDNAKNTVYLQMNSLKPEDTAVYYCATACYSSYVTYWGQGTQVTVSS
notes: no cleavage of the His6 tag is described; also called Group 8 (Nb28); source: E. coli WK6, periplasmic extract, purified (Ni2+-NTA; some nanobodies also SEC)
[4]
  Kd: 94 ± 7.5 nM
  stoichiometry N: 2 nanobody per APH2 dimer (cell:syringe)
[5]
  Kd: 23 ± 1.7 nM
  stoichiometry N: 2 nanobody per complex (cell:syringe)
[1]
  Kd: 140 ± 10 nM
  stoichiometry N: 2 nanobody per APH2 dimer (cell:syringe)

B4: nanobody Nb28 (VHH)
VHH: B3 VHH
notes: as for B2
[2]
  stoichiometry N: 2 nanobodies per APH2 dimer (printed 2:2 nanobody:CC peptide)

B5: nanobody Nb26 (VHH)
VHH: QVQLQESGGGLVQAGDSLRLSCAASGRTFSTYPMGWFRQAPGKEREFVAASSSRAYYADSVKGRFTISRNNAKNTVYLQMNSLKPEDTAVYYCVADSSPYYRRYDAAQDYDYWGQGTQVTVSS
notes: no cleavage of the His6 tag is described; also called Group 1 (Nb26); source: E. coli WK6, periplasmic extract, purified (Ni2+-NTA; some nanobodies also SEC)
[1]
  stoichiometry N: 2 nanobody per APH2 dimer (cell:syringe)

B6: nanobody Nb26 (VHH)
VHH: B5 VHH
notes: as for B2
[2]
  stoichiometry N: 2 nanobodies per APH2 dimer (printed 2:2 nanobody:CC peptide)
[3]
  Kd: 39 nM
  dH: -28 kcal ⋅ mol^−1

B7: nanobody Nb30 (VHH)
VHH: QVQLQESGGGLVQPGGSLRLSCAASGSIFSDNDMGWYRQPPGKQREWVATITYDHVTWYADSVKGRFAISRDNAKNTVYLQMNDLKPEDTAVYYCNAVPGRRGSWGQGTQVTVSS
notes: no cleavage of the His6 tag is described; also called Group 10 (Nb30); source: E. coli WK6, periplasmic extract, purified (Ni2+-NTA, SEC)
[6]
  Kd: 55 ± 4.2 nM
  stoichiometry N: 2 nanobody per complex (cell:syringe)
[1]
  Kd: 710 ± 58 nM
  stoichiometry N: 2 nanobody per APH2 dimer (cell:syringe)

B8: nanobody Nb30 (VHH)
VHH: B7 VHH
notes: as for B2
[2]
  stoichiometry N: 2 nanobodies per APH2 dimer (printed 2:2 nanobody:CC peptide)
